Reference: article PMC6957486

How the values were obtained:
[1] = molecular target: photosystem I (PSI) core from H. hongdechloris grown under far-red light, one monomer of the trimer (Halomicronema hongdechloris); assay: cryo-EM structure; single particle analysis of PSI trimers purified whole from thylakoid membranes; 50 mM MES (pH 6.0), 5 mM CaCl2, 0.2-2.0% sucrose, 0.01% β-DDM; grids washed without sucrose and β-DDM; 2.35 Å (white PSI) and 2.41 Å (far-red PSI)
[2] = molecular target: photosystem I (PSI) core from H. hongdechloris grown under white light, one monomer of the trimer (Halomicronema hongdechloris); assay: as above

Substance	stoichiometry N [1]	stoichiometry N [2]
photosystem I (PSI) core from H. hongdechloris grown under far-red light, one monomer of the trimer (from UniProt A0A1Z3HPE3 1-81; A0A1Z3HHI7 1-142; A0A1Z3HI16 1-68; A0A1Z3HR36 1-96) (complex)	3	–
photosystem I (PSI) core from H. hongdechloris grown under white light, one monomer of the trimer (from UniProt A0A1Z3HPE3 1-81; A0A1Z3HHI7 1-142; A0A1Z3HI16 1-68) (complex)	–	3
